In this experiment the target is acetylcholine receptor. Briefly: SPR, AchR immobilized on CM5 chip, peptide 10 uM. In general terms: In SPR one partner is held on a chip, and binding of the other changes the refractive index at the surface.

B1: 6mer-1-395 (peptide)
peptide: KKRQTK
On to B1, for which the Binding affinity (RU) came out at 125 RU.

B2: 6mer-1-739 (peptide)
peptide: RKCCEK
B2 came in with a Binding affinity (RU) of 32 RU.

B3: 6mer-1-743 (peptide)
peptide: KKTMVR
As for B3, the Binding affinity (RU) amounted to 14 RU.

B4: 6mer-1-773 (peptide)
peptide: KRTEIR
Consider B4, for which the Binding affinity (RU) stood at 29 RU.

B5: 6mer-1-736 (peptide)
peptide: KKATDK
Take B5: the Binding affinity (RU) was 15 RU.

B6: 6mer-1-740 (peptide)
peptide: RKDNKR
Molecule B6 had a Binding affinity (RU) of 26 RU.

B7: 6mer-1-769 (peptide)
peptide: RKMPVK
On to B7, for which the Binding affinity (RU) came out at 14 RU.

B8: 6mer-1-387 (peptide)
peptide: KKGRLR
As for B8, the Binding affinity (RU) turned out to be 148 RU.

B9: 6mer-1-768 (peptide)
peptide: RKFEWK
B9 had a Binding affinity (RU) of 32 RU.

B10: 6mer-1-751 (peptide)
peptide: RRTNFK
As for B10, the Binding affinity (RU) was 27 RU.

B11: 6mer-1-391 (peptide)
peptide: RRQRCK
Take B11: the Binding affinity (RU) stood at 131 RU.

B12: 6mer-1-762 (peptide)
peptide: KKTKAR
As to B12, the Binding affinity (RU) was determined as 13 RU.

B13: 6mer-1-780 (peptide)
peptide: KRKCWR
Turning to B13, the Binding affinity (RU) amounted to 24 RU.

B14: 6mer-1-753 (peptide)
peptide: KKDTHK
The molecule B14 yielded a Binding affinity (RU) of 12 RU.

B15: 6mer-1-389 (peptide)
peptide: RKLFCK
B15: the Binding affinity (RU) was determined as 125 RU.

B16: 6mer-1-750 (peptide)
peptide: KRENIK
Consider B16, for which the Binding affinity (RU) came to 33 RU.

B17: 6mer-1-734 (peptide)
peptide: RRTHER
The molecule B17 came in with a Binding affinity (RU) of 21 RU.

B18: 6mer-1-774 (peptide)
peptide: KKEMER
In turn, B18 returned a Binding affinity (RU) of 21 RU.

B19: 6mer-1-772 (peptide)
peptide: KRNCAK
Take B19: the Binding affinity (RU) amounted to 12 RU.

B20: 6mer-1-784 (peptide)
peptide: KKFTPK
With B20, the Binding affinity (RU) worked out at 33 RU.

B21: 6mer-1-397 (peptide)
peptide: KRLILR
Take B21: the Binding affinity (RU) came out at 125 RU.

B22: 6mer-1-737 (peptide)
peptide: RRKNAR
As for B22, the Binding affinity (RU) was determined as 27 RU.

B23: 6mer-1-766 (peptide)
peptide: RKCTIR
On to B23, for which the Binding affinity (RU) amounted to 15 RU.

B24: 6mer-1-749 (peptide)
peptide: RKPHWR
On to B24, for which the Binding affinity (RU) was 33 RU.

B25: 6mer-1-386 (peptide)
peptide: RRSYQK
Turning to B25, the Binding affinity (RU) worked out at 127 RU.

B26: 6mer-1-752 (peptide)
peptide: KRPTEK
B26 displayed a Binding affinity (RU) of 16 RU.

B27: 6mer-1-786 (peptide)
peptide: KRIKEK
For B27, the Binding affinity (RU) stood at 26 RU.

B28: 6mer-1-393 (peptide)
peptide: KRLYYK
Take B28: the Binding affinity (RU) worked out at 148 RU.

B29: 6mer-1-764 (peptide)
peptide: RRNPFK
B29 gave a Binding affinity (RU) of 24 RU.

B30: 6mer-1-787 (peptide)
peptide: KKESIK
As for B30, the Binding affinity (RU) stood at 16 RU.

B31: 6mer-1-782 (peptide)
peptide: KKNAWK
For the molecule B31, the Binding affinity (RU) worked out at 30 RU.

B32: 6mer-1-396 (peptide)
peptide: KRQIQK
In turn, B32 had a Binding affinity (RU) of 148 RU.

B33: 6mer-1-781 (peptide)
peptide: RRHWDK
B33 yielded a Binding affinity (RU) of 16 RU.

B34: 6mer-1-776 (peptide)
peptide: KKTSIK
Consider B34, for which the Binding affinity (RU) was 13 RU.

B35: 6mer-1-763 (peptide)
peptide: RRDCAK
Consider B35, for which the Binding affinity (RU) is 12 RU.

B36: 6mer-1-733 (peptide)
peptide: KKKMFK
Molecule B36 displayed a Binding affinity (RU) of 21 RU.

B37: 6mer-1-754 (peptide)
peptide: RKKKMK
Regarding B37, the Binding affinity (RU) was 24 RU.

B38: 6mer-1-398 (peptide)
peptide: KKQYYR
B38: the Binding affinity (RU) is 137 RU.

B39: 6mer-1-765 (peptide)
peptide: KRASPK
On to B39, for which the Binding affinity (RU) stood at 25 RU.

B40: 6mer-1-783 (peptide)
peptide: KKNEFK
B40 displayed a Binding affinity (RU) of 29 RU.

B41: 6mer-1-757 (peptide)
peptide: RKDNEK
Molecule B41 registered a Binding affinity (RU) of 26 RU.

B42: 6mer-1-401 (peptide)
peptide: RRLYCR
B42: the Binding affinity (RU) is 127 RU.

B43: 6mer-1-392 (peptide)
peptide: RRVQTR
With B43, the Binding affinity (RU) was determined as 135 RU.

B44: 6mer-1-746 (peptide)
peptide: RKMSVK
The molecule B44 showed a Binding affinity (RU) of 24 RU.

B45: 6mer-1-775 (peptide)
peptide: KKYPWR
B45 returned a Binding affinity (RU) of 12 RU.

B46: 6mer-1-778 (peptide)
peptide: RRDDFR
In turn, B46 displayed a Binding affinity (RU) of 28 RU.

B47: 6mer-1-390 (peptide)
peptide: RKLQQR
B47 registered a Binding affinity (RU) of 121 RU.

B48: 6mer-1-399 (peptide)
peptide: KRWILR
Regarding B48, the Binding affinity (RU) was found to be 125 RU.

B49: 6mer-1-735 (peptide)
peptide: RKDKER
For the molecule B49, the Binding affinity (RU) was determined as 19 RU.

B50: 6mer-1-771 (peptide)
peptide: KKMDIK
With B50, the Binding affinity (RU) was 17 RU.

B51: 6mer-1-747 (peptide)
peptide: KKTMDR
In turn, B51 registered a Binding affinity (RU) of 24 RU.

B52: 6mer-1-744 (peptide)
peptide: RKHEIK
For the molecule B52, the Binding affinity (RU) was found to be 31 RU.

B53: 6mer-1-394 (peptide)
peptide: KKVRRR
Molecule B53 registered a Binding affinity (RU) of 149 RU.

B54: 6mer-1-742 (peptide)
peptide: RRFHWR
The molecule B54 yielded a Binding affinity (RU) of 14 RU.

B55: 6mer-1-748 (peptide)
peptide: RKHNGR
Take B55: the Binding affinity (RU) amounted to 24 RU.

B56: 6mer-1-745 (peptide)
peptide: KKTMEK
B56 gave a Binding affinity (RU) of 11 RU.

B57: 6mer-1-738 (peptide)
peptide: RKYHHR
Molecule B57 registered a Binding affinity (RU) of 25 RU.

B58: 6mer-1-779 (peptide)
peptide: RRPDAR
In turn, B58 displayed a Binding affinity (RU) of 30 RU.

B59: 6mer-1-767 (peptide)
peptide: KRTPDK
Consider B59, for which the Binding affinity (RU) was determined as 18 RU.

B60: 6mer-1-785 (peptide)
peptide: KKTCER
Regarding B60, the Binding affinity (RU) turned out to be 19 RU.

B61: 6mer-1-770 (peptide)
peptide: RKTNAR
In turn, B61 showed a Binding affinity (RU) of 29 RU.

B62: 6mer-1-741 (peptide)
peptide: RKEAGR
Molecule B62 registered a Binding affinity (RU) of 24 RU.

B63: 6mer-1-760 (peptide)
peptide: KRMMVR
Consider B63, for which the Binding affinity (RU) worked out at 21 RU.

B64: 6mer-1-777 (peptide)
peptide: RRHNHR
Consider B64, for which the Binding affinity (RU) came to 16 RU.

B65: 6mer-1-758 (peptide)
peptide: KKYHHR
As to B65, the Binding affinity (RU) was 33 RU.

B66: 6mer-1-388 (peptide)
peptide: RRLLQR
On to B66, for which the Binding affinity (RU) was determined as 142 RU.

B67: 6mer-1-755 (peptide)
peptide: RRANMR
As to B67, the Binding affinity (RU) turned out to be 25 RU.

B68: 6mer-1-759 (peptide)
peptide: RKMTWR
B68 displayed a Binding affinity (RU) of 23 RU.

B69: 6mer-1-756 (peptide)
peptide: RKAKMK
B69 came in with a Binding affinity (RU) of 33 RU.

B70: 6mer-1-400 (peptide)
peptide: KRWQTK
Molecule B70 had a Binding affinity (RU) of 123 RU.

B71: 6mer-1-761 (peptide)
peptide: RKETFR
In turn, B71 came in with a Binding affinity (RU) of 33 RU.

Values taken from patent US20250011363A1, “OPTIMIZED SHORTENED PEPTIDE THAT BINDS TO ACETYLCHOLINE RECEPTOR, AND USE THEREOF” (SKINMED CO., LTD., priority 2021, published 2025).
